Laboratory results taken from article PMC3830444.
pIC50: −log10 of the molar value.

Legend:
human α-thrombin (human) [1] = target: human α-thrombin (human) (UniProt P00734)
human α-thrombin (human) [2] = target: human α-thrombin (human) (UniProt P00734); test: ELISA
γT-thrombin = γT-thrombin (UniProt P00734)
human α-thrombin (human) [3] = target: human α-thrombin (human) (UniProt P00734); remark: listed apart in the source
activated protein C = activated protein C (UniProt P04070)
[4] = target: FPR-chloromethyl ketone-thrombin (active site-inhibited α-thrombin) (human) (UniProt P00734); test: ELISA; HCII 1-75 immobilised on microtiter plates; α-thrombin or FPR-ck-thrombin incubated with or without competitor peptides or proteins; bound thrombin detected after washes with a horseradish peroxidase-conjugated sheep anti-human antibody (A490); one-site binding fit, IC50 = competitor concentration that reduces binding by 50%
human α-thrombin (human) [5] = target: human α-thrombin (human) (UniProt P00734); test: as above

Chain of activated protein C (P04070 whole entry, looked up): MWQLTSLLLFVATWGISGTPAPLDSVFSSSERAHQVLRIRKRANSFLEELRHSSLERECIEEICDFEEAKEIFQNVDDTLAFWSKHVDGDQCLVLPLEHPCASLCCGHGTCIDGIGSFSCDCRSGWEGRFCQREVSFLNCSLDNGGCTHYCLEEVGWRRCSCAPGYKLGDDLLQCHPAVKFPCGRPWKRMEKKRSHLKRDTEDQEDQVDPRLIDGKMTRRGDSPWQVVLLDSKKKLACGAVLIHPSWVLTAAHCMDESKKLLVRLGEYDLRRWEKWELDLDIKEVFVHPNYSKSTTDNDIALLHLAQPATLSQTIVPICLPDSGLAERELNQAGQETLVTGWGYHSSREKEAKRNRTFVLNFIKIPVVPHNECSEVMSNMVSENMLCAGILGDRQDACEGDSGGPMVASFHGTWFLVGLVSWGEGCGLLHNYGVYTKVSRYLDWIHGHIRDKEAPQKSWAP

## HV3_(54-66) synthetic peptide
Human α-thrombin (human) [1]
  concentration required to double the Thrombin Clotting Time (TCT) of diluted citrated human plasma: 0.45 µM
Human α-thrombin (human) [2]
  pIC50: 6.05

## API M358R (alpha-1 proteinase inhibitor with the substitution of Met358 by Arg) (from UniProt P01009 25-418) (natural protein)
γT-thrombin
  second order rate constant of inhibition (k2) of γT-thrombin: 98300 M⁻¹ s⁻¹
Human α-thrombin (human) [3]
  second order rate constant of inhibition (k2) of α-thrombin: 367000 M⁻¹ s⁻¹
Activated protein C
  second order rate constant of inhibition (k2) of APC: 28300 M⁻¹ s⁻¹

## HV3API M358R (HV3 residues 54-66 fused through G6 to the N-terminus of API M358R) (from UniProt P01009 25-418)
Activated protein C
  second order rate constant of inhibition (k2) of APC: 31700 M⁻¹ s⁻¹

## HAPI M358R (residues 1-75 of heparin cofactor II fused to API M358R) (from UniProt P01009 25-418)
γT-thrombin
  second order rate constant of inhibition (k2) of γT-thrombin: 567000 M⁻¹ s⁻¹
Human α-thrombin (human) [3]
  second order rate constant of inhibition (k2) of α-thrombin: 3.1e+06 M⁻¹ s⁻¹
Activated protein C
  second order rate constant of inhibition (k2) of APC: 28300 M⁻¹ s⁻¹

## HCII 1-75 (recombinant protein of 84 amino acids: residues 1-75 of heparin cofactor II with an N-terminal nonapeptide tag) (domain or fragment)
[4]
  pIC50: 5.05
Human α-thrombin (human) [5]
  pIC50: 5.10
Human α-thrombin (human) [1]
  concentration required to double the Thrombin Clotting Time (TCT) of diluted citrated human plasma: 12 µM

## HAPI RCL5 (HAPI M358R with additional F352A/L353V/E354V/A355I/I356A/I460L substitutions) (from UniProt P01009 25-418)
[4]
  pIC50: 4.77
